Experimental data taken from article PMC9909445 (Nature nanotechnology, 2022).

Columns and labels:
[1] = molecular target: T1, murine neutrophil elastase (mNE) (mouse, UniProt Q3UP87 27-265); experiment: SPR
T1 sequence (looked up): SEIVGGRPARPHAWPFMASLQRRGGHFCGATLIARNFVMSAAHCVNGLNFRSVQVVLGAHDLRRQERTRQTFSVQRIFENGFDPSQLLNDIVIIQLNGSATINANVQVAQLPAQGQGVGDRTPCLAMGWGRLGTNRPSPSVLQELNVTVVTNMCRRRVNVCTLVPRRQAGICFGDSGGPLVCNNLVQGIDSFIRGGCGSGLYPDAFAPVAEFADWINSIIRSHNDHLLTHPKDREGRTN

[2] = molecular target: T2, human neutrophil elastase (hNE) (human, UniProt P08246 30-267); experiment: MST
T2 sequence (looked up): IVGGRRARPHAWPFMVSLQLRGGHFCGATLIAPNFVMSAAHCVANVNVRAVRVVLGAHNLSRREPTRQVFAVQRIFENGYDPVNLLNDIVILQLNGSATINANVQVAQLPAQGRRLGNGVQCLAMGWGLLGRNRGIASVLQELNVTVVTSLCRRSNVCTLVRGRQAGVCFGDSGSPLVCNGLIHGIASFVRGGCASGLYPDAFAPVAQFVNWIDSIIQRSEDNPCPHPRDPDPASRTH

- Kd [1]: 1.6 nM
- koff [1]: 8.31e-06 s⁻¹
- kon [1]: 5200 M⁻¹ s⁻¹
- Kd [2]: 2080 ± 1350 nM
B1: NE-binding peptide (NEBP) (peptide)
peptide: CGEAIPMSIPPEVK
